PMC11026580 (2024)

Molecular target: FcαRI (CD89) (Homo sapiens, UniProt P24071)
Test: SPR

FcαRI (CD89), sequence (P24071 22-287): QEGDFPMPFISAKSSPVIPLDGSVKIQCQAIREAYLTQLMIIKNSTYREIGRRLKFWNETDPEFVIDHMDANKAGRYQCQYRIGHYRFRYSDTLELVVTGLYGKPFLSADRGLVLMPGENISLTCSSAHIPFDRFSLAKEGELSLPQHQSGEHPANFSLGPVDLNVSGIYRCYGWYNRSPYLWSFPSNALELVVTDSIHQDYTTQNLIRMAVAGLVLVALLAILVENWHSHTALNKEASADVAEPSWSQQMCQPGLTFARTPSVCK

B1: IgA2 (glycoforms) (protein)
chain: ASPTSPKVFPLSLDSTPQDGNVVVACLVQGFFPQEPLSVTWSESGQNVTARNFPPSQDASGDLYTTSSQLTLPATQCPDGKSVTCHVKHYTNSSQDVTVPCRVPPPPPCCHPRLSLHRPALEDLLLGSEANLTCTLTGLRDASGATFTWTPSSGKSAVQGPPERDLCGCYSVSSVLPGCAQPWNHGETFTCTAAHPELKTPLTANITKSGNTFRPEVHLLPPPSEELALNELVTLTCLARGFSPKDVLVRWLQGSQELPREKYLTWASRQEPSQGTTTYAVTSILRVAAEDWKKGETFSCMVGHEALPLAFTQKTIDRMAGSCCVADWQMPPPYVVLDLPQETLEEETPGANLWPTTITFLTLFLLSLFYSTALTVTSVRGPSGKREGPQY
B1 gave a Kd of ~300 nM.
